From patent US20220033501A1 (SHANGHAI PHARMAEXPLORER, published 2022)
Numbering of substitutions follows the chain as printed.

T1: human TIM-3 on CHOK1 stable cell line (CHOK1-hTIM-3) (human, UniProt Q8TDQ0 22-301)
T1 sequence: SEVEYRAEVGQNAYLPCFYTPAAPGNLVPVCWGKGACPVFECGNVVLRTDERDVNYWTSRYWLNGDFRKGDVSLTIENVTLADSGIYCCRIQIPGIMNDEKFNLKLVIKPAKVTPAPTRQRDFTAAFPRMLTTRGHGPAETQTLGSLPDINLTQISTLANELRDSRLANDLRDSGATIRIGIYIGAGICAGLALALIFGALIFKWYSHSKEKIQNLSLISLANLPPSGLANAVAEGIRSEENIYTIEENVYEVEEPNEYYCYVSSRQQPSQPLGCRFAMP

T2: human TIM-3 extracellular domain protein with hFc tag (hTIM-3-hFc) (human, UniProt Q8TDQ0 22-200)
T2 construct: not shown: human IgG Fc fragment (hFc) of the pCpC vector
T2 sequence: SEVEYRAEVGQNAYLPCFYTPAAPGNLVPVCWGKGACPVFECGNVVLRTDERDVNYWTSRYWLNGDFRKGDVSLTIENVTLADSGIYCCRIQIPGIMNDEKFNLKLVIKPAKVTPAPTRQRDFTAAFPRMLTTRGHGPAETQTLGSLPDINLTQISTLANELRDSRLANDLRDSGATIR

T3: murine TIM-3 extracellular domain protein with hFc tag (mTIM-3-hFc) (mouse, UniProt Q8VIM0 29-191)
T3 construct: also called mouse TIM-3 extracellular domain protein; not shown: human IgG Fc fragment (hFc) of the pCpC vector
T3 chain: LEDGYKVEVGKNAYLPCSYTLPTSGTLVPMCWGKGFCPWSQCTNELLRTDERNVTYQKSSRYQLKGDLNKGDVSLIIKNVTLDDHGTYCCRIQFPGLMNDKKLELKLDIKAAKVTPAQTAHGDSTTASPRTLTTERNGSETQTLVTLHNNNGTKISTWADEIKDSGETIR

T4: monkey TIM-3 extracellular domain protein with hFc tag (cTIM-3-hFc) (monkey)
T4 construct: not shown: human IgG Fc fragment (hFc) of the pCpC vector
T4 chain: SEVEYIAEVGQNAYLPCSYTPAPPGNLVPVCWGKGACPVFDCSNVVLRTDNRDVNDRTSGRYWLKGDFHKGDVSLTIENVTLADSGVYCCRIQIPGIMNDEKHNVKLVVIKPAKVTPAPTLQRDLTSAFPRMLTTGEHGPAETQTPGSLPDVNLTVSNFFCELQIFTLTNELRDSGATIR

T5: human TIM-3 protein with hFc tag (hTIM-3-hFc protein) (human, UniProt Q8TDQ0 22-200)
T5 construct: also called immunogen 1; human TIM-3 extracellular domain protein; not shown: human IgG Fc fragment (hFc) of the pCpC vector
T5 sequence: T2 sequence

T6: murine TIM-3 protein with hFc tag (mTIM-3-hFc protein) (mouse; human, UniProt Q8VIM0 29-191)
T6 construct: Made in HEK293 cells; also called mouse TIM-3 extracellular domain protein; not shown: human IgG Fc fragment (hFc) of the pCpC vector
T6 chain: T3 chain

B1: 215A8F2 fully human TIM-3 antibody (human IgG4, kappa) (antibody, V domains shown)
VH: QVQLQQWGAGLLKPSETLSLTCTVYGGSFSGYYWNWIRQPPGKGLEWLGEINHSGSTNYNPSLKRRVTISVDTSKNQFSLKLSSVTAADTAVYYCARVYYYGPFDFWGQGTLVTVSS
VL: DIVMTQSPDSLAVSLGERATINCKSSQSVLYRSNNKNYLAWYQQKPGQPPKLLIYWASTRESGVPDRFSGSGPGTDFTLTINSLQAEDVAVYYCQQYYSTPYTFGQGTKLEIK
B2: 215A8F2 (TIM-3 antibody purified from hybridoma, chimeric antibody of Example 2) (antibody, V domains shown)
VH: B1 VH
VL: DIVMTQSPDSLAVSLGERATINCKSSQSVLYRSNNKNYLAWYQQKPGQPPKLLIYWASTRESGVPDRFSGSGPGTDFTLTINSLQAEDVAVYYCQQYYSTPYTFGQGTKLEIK
notes: From hybridoma of Harbour H2L2 transgenic mice: human variable regions, rat constant regions
B3: 57F4E5 fully human TIM-3 antibody (human IgG4, kappa) (antibody, V domains shown)
VH: EVQLVESGGGLVQPGGSLRLSCAASGFTFSSYWMSWVRQAPGKGLEWVANIKQDGSEKYYVDSVKGRFTISRDSAKNSLYLQMNSLRAEDTAMYFCARDSNFFDYWGQGTLVTVSS
VL: ETVMTQSPATLSVSPGERATLSCRASQSVSSNLAWYQRKPGQAPRLLIYFSSTRATGIPARFSGSGSGTEFTLTISSLQSEDFAVYYCQQYNNWPLTFGGGTKVEIK
B4: 57F4E5 (TIM-3 antibody purified from hybridoma, chimeric antibody of Example 2) (antibody, V domains shown)
VH: B3 VH
VL: B3 VL
notes: as for B2
B5: 18D2H2 fully human TIM-3 antibody (human IgG4, kappa) (antibody, V domains shown)
VH: EVQLVESGGDLVQPGGSLRLSCAASGFTFSTYWMTWVRQAPGRGLEWVANIKQDGSAKYYVDSVKGRFTLSRDDAKNSLYLQMNSLRAEDTAVYYCARGSNWFDYWGQGTLVTVSS
VL: B3 VL with S26N, S28N, S30Y, R38Q, F50D, S51A, I58F
B6: 18D2H2 (TIM-3 antibody purified from hybridoma, chimeric antibody of Example 2) (antibody, V domains shown)
VH: B5 VH
VL: B3 VL with S26N, S28N, S30Y, R38Q, F50D, S51A, I58F
notes: as for B2
B7: 39E5H1 (TIM-3 antibody purified from hybridoma, chimeric antibody of Example 2) (antibody, V domains shown)
VH: EVQLVESGGGLVQPGGSLRLSCAASGFTFSSYWMSWVRQAPGKGLEWVANIKRGGSERYYVDSVKGRFTISGDNAKNSVYLQMNSLRAEDTAVYYCARGSNWFDPWGQGTLVTVSS
VL: B3 VL with T10I, S30Y, R38Q, P40L, F50D, S51A, L96I, G100Q, K103R, V104L
notes: as for B2
B8: 134H3G6 fully human TIM-3 antibody (human IgG4, kappa) (antibody, V domains shown)
VH: EVQLVESGGGLVQPGGSLRLSCAASGFTFSNSWMTWVRQAPGKGLEWVANIKQAGTEKYYVDSVKGRFTISRDNAKNSLYLQMNSLRAEDTAVYYCNSGSNYFDYWGQGTLVTVSS
VL: B3 VL with T2I, S26R, S28N, V29F, S30Y, R38Q, F50G, S51A
B9: 134H3G6 (TIM-3 antibody purified from hybridoma, chimeric antibody of Example 2) (antibody, V domains shown)
VH: B8 VH
VL: B3 VL with T2I, S26R, S28N, V29F, S30Y, R38Q, F50G, S51A
notes: as for B2
B10: 7A4F10 fully human TIM-3 antibody (human IgG4, kappa) (antibody, V domains shown)
VH: EVQLLESGGGLVQPGGSLRLSCAASGFTFRTHLISWVRQAPGKGLEWVAAITGSGGSTYYADSVKGRFIISRDNSKNTLFLQMNSLRAEDTAVYYCAKDGGSGSYDDFWGQGTLVTVSS
VL: ETVLTQSPVTLSLSPGERATLSCRASQSVGSYLAWYQQKPGQAPRLLIYDASNRATGIPARFSGSGSGTDFTLTISSLEPEDFAVYYCQQRSNWPPTFGQGTKVEIK
B11: 7A4F10 (TIM-3 antibody purified from hybridoma, chimeric antibody of Example 2) (antibody, V domains shown)
VH: B10 VH
VL: B10 VL
notes: as for B2
B12: 34B6D8 fully human TIM-3 antibody (human IgG4, kappa) (antibody, V domains shown)
VH: B7 VH with S31T, S35T, G44R, R53Q, S56G, E57D, R58K, G72T, V79L
VL: EIVMTQSPATLSMSPGERATLSCRASQSVYDNLAWYQQKPGQAPRLLIYGASTRATGIPARFSGSGSGTEFTLTISSLQSEDFALYYCQQYTHWPITFGQGTRLEIK
B13: 34B6D8 (TIM-3 antibody purified from hybridoma, chimeric antibody of Example 2) (antibody, V domains shown)
VH: B7 VH with S31T, S35T, G44R, R53Q, S56G, E57D, R58K, G72T, V79L
VL: B12 VL
notes: as for B2

How the values were obtained:
[1] = target: T1, human TIM-3 on CHOK1 stable cell line …; test: FACS, CHOK1-hTIM-3 cells, 0.064 nM antibody
[2] = target: T2, human TIM-3 extracellular domain …; test: ELISA, coated human TIM-3 ECD protein, 66.667 nM antibody
[3] = target: T3, murine TIM-3 extracellular domain …; test: ELISA, coated mouse TIM-3 ECD protein, 66.667 nM antibody
[4] = target: T4, monkey TIM-3 extracellular domain …; test: ELISA, coated monkey TIM-3 ECD protein, 0.0001 nM antibody
[5] = target: T4, monkey TIM-3 extracellular domain …; test: ELISA, coated monkey TIM-3 ECD protein, 0.0007 nM antibody
[6] = target: T5, human TIM-3 protein with hFc tag …; test: ELISA, coated hTIM-3-hFc; antibody 0.0001 nM
From the text: (§1) The amino acid sequence 22-200 of the extracellular domain of the human TIM-3 protein described in the step of Example 1 (as shown in SEQ ID NO. 71 in the sequence listing) was cloned into a pCpC vector having a human IgG Fc fragment (hFc), and transfected into HEK293 cells. The cell culture medium was collected, and purified to obtain the human TIM-3 protein with hFc tag (herein referred to as hTIM-3-hFc protein). The amino acid sequence 22-201 of the extracellular domain of the monkey TIM-3 protein (as shown in SEQ ID NO. 72 in the sequence listing) was cloned into a pCpC vector having a human IgG Fc fragment (hFc), and transfected into HEK293 cells. The cell culture medium was collected, and purified to obtain the monkey TIM-3 protein with hFc tag (herein referred to as cTIM-3-hFc protein). […] The cell culture medium was collected, and purified to obtain the murine TIM-3 protein with hFc tag (herein referred to as mTIM-3-hFc protein). Purified human, monkey, and mouse TIM-3 extracellular domain proteins (hTIM-3-hFc, cTIM-3-hFc, and mTIM-3-hFc) were diluted with PBS to a final concentration of 1.0 μg/ml and then added to a 96-well ELISA plate with 100 μl per well. The plate was sealed with plastic film and incubated overnight at 4° C. The plate was washed 4 times with the plate washing solution (PBS+0.01% Tween20) on the next day, and added with the blocking solution (PBS+0.01% Tween20+1% BSA) and sealed at room temperature for 1-2 hours. The blocking solution was poured out. 50-100 μl of the antibody sample to be tested was added to each well. The plate was incubated at 37° C. for 1-2 hours, and washed 2-3 times with plate washing solution (PBS+0. 01% Tween20). HRP (horseradish peroxidase) labeled secondary antibody was added. The plate was incubated at 37° C. for 1-2 hours, and washed 2-3 times with plate washing solution (PBS+0. 01% Tween20). […] of TMB substrate was added to each well. After incubated at room temperature for 15-30 minutes, the plate was added with […] stop solution (1.0N HCl) to each well. An ELISA plate reader (TiterMax 384plus, Molecular Device) was used to read the A450 nm value.

[7] = target: T5, human TIM-3 protein with hFc tag …; test: ELISA, coated hTIM-3-hFc; antibody 0.0007 nM
From the text: as §1

[8] = target: T5, human TIM-3 protein with hFc tag …; test: ELISA, coated hTIM-3-hFc; antibody 0 nM (blank)
From the text: as §1

[9] = target: T6, murine TIM-3 protein with hFc tag …; test: ELISA, coated mTIM-3-hFc; antibody 0 nM (blank)
From the text: as §1

Row | Binder | Mean fluorescence intensity [1] | OD450 [2] | OD450 [3] | OD450 [4] | OD450 [5] | OD450 [6] | OD450 [7] | OD450 [8] | OD450 [9]
1 | B1 | 20.5 | 3.08 | 1.08 | 0.13 | 0.15 | – | – | – | –
2 | B2 | – | – | – | – | – | 0.12 | 0.14 | 0.11 | 0.63
3 | B3 | 23.7 | 3.06 | 1.55 | 0.17 | 0.18 | – | – | – | –
4 | B4 | – | – | – | – | – | 0.13 | 0.19 | 0.12 | 0.64
5 | B5 | 32.9 | 2.78 | 0.81 | 0.14 | 0.15 | – | – | – | –
6 | B6 | – | – | – | – | – | 0.12 | 0.12 | 0.11 | 0.62
7 | B7 | – | – | – | – | – | 0.13 | 0.16 | 0.12 | 0.62
8 | B8 | 34.5 | 2.77 | 0.94 | 0.14 | 0.15 | – | – | – | –
9 | B9 | – | – | – | – | – | 0.12 | 0.13 | 0.12 | 0.64
10 | B10 | 28.8 | 3.02 | 0.99 | 0.13 | 0.14 | – | – | – | –
11 | B11 | – | – | – | – | – | 0.12 | 0.12 | 0.11 | 0.63
12 | B12 | 22.2 | 3.1 | 1.38 | 0.17 | 0.19 | – | – | – | –
13 | B13 | – | – | – | – | – | 0.12 | 0.15 | 0.12 | 0.66
